Patent US20150368338A1 (Janssen / Centocor, published 2015)
Positions count from the first letter of the chain named.

B1: IFWM3413 (antibody, IgG1, V domains shown)
VH: EVQLVQSGAEVKKPGESLKISCKGSGYSFTSYWIGWVRQMPGKGLEWMGIIDPSDSDTRYSPSFQGQVTISADKSISTAYLQWSSLKASDTAMYYCARHPGLAWAPDFDYWGQGTLVTVSS
VL: DIQMTQSPSSLSASVGDRVTITCRASQSINYLNWYQQKPGKAPKLLIYGASSLQSGVPSRFSGSGSGTDFTLTISSLQPEDFATYYCQQSHDWPITFGQGTKVEIK
notes: mAb; IgG1/kappa said of the parent and of selected mAbs; also called IFWB3148
B2: IFWM3372 (antibody, IgG1, V domains shown)
VH: B1 VH with R59A, A103N
VL: DIQMTQSPSSLSASVGDRVTITCRASQSIDNNNLNWYQQKPGKAPKLLIYAASSLQSGVPSRFSGSGSGTDFTLTISSLQPEDFATYYCQQGYDWPLTFGQGTKVEIK
notes: mAb; IgG1/kappa said of the parent and of selected mAbs; also called IFWB3107
B3: IFWM3418 (antibody, IgG1, V domains shown)
VH: B1 VH with A103N
VL: DIQMTQSPSSLSASVGDRVTITCRASQSIAGFLNWYQQKPGKAPKLLIYYASSLQSGVPSRFSGSGSGTDFTLTISSLQPEDFATYYCQQSYSIPITFGQGTKVEIK
notes: mAb; IgG1/kappa said of the parent and of selected mAbs; also called IFWB3153
B4: IFWM3407 (antibody, IgG1, V domains shown)
VH: B1 VH
VL: B2 VL with D30R, Y50H, A51W, W95T, L97F
notes: mAb; IgG1/kappa said of the parent and of selected mAbs; also called IFWB3142
B5: IFWM3376 (antibody, IgG1, V domains shown)
VH: B1 VH with R59A, A103N
VL: B2 VL with D30S, N32S, Y50H, A51W, G92W, W95H
notes: mAb; IgG1/kappa said of the parent and of selected mAbs; also called IFWB3111
B6: IFWM3378 (antibody, IgG1, V domains shown)
VH: B1 VH with R59A, A103N
VL: B2 VL with D30A, N33D, Y50H, A51W, G92D
notes: mAb; IgG1/kappa said of the parent and of selected mAbs; also called IFWB3113
B7: IFWM3414 (antibody, IgG1, V domains shown)
VH: B1 VH
VL: B2 VL with D30R, N33Y, W95T
notes: mAb; IgG1/kappa said of the parent and of selected mAbs; also called IFWB3149
B8: IFWM3417 (antibody, IgG1, V domains shown)
VH: B1 VH
VL: B2 VL with D30A, N33D, Y50H, A51W, G92D
notes: mAb; IgG1/kappa said of the parent and of selected mAbs; also called IFWB3152
B9: IFWM3415 (antibody, IgG1, V domains shown)
VH: B1 VH
VL: B2 VL with D30S, N32S, Y50H, A51W, G92W, W95H
notes: mAb; IgG1/kappa said of the parent and of selected mAbs; also called IFWB3150
B10: IFWM3370 (antibody, IgG1, V domains shown)
VH: B1 VH with R59A, A103N
VL: B2 VL with N32S, N33Y, A51G, Y93W
notes: mAb; IgG1/kappa said of the parent and of selected mAbs; also called IFWB3105
B11: IFWM3411 (antibody, IgG1, V domains shown)
VH: B1 VH
VL: B2 VL
notes: mAb; IgG1/kappa said of the parent and of selected mAbs; also called IFWB3146
B12: IFWM3371 (antibody, IgG1, V domains shown)
VH: B1 VH with R59A, A103N
VL: B2 VL with D30A, N32T, Y50H, A51W, G92W, W95N
notes: mAb; IgG1/kappa said of the parent and of selected mAbs; also called IFWB3106
B13: IFWM3409 (antibody, IgG1, V domains shown)
VH: B1 VH
VL: B2 VL with N32S, N33Y, A51G, Y93W
notes: mAb; IgG1/kappa said of the parent and of selected mAbs; also called IFWB3144
B14: IFWM3375 (antibody, IgG1, V domains shown)
VH: B1 VH with R59A, A103N
VL: B2 VL with D30R, N33Y, W95T
notes: mAb; IgG1/kappa said of the parent and of selected mAbs; also called IFWB3110
B15: IFWM3420 (antibody, IgG1, V domains shown)
VH: B1 VH with R59A, A103N
VL: B3 VL
notes: mAb; IgG1/kappa said of the parent and of selected mAbs; also called IFWB3155
B16: IFWM3377 (antibody, IgG1, V domains shown)
VH: B1 VH with R59A, A103N
VL: B2 VL with D30R, N32T, Y50H, A51W, W95T, L97F
notes: mAb; IgG1/kappa said of the parent and of selected mAbs; also called IFWB3112
B17: IFWM3419 (antibody, IgG1, V domains shown)
VH: B1 VH
VL: B3 VL
notes: mAb; IgG1/kappa said of the parent and of selected mAbs; also called IFWB3154
B18: IFWM3406 (antibody, IgG1, V domains shown)
VH: B1 VH
VL: B1 VL with Y31N, G49W, S90G, H91Y, W93T, I95F
notes: mAb; IgG1/kappa said of the parent and of selected mAbs; also called IFWB3141
B19: IFWM3331 (antibody, IgG1, V domains shown)
VH: B1 VH with A103N
VL: B2 VL with N32S, N33Y, A51G, Y93W

Target: T1, human IFN-ω (human, UniProt P05000 24-195)
T1 construct: Recombinant, HEK293; also called interferon omega
Test: ProteOn SPR, cell supernatant;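 further: each binding measurement used just a single antigen concentration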

Kd | Binder
47 pM | B1
49 pM | B2
89 pM | B3
17 pM | B4
20 pM | B5
75 pM | B6
58 pM | B7
29 pM | B8
18 pM | B9
10 pM | B10
28 pM | B11
18 pM | B12
14 pM | B13
19 pM | B14
36 pM | B15
27 pM | B16
86 pM | B17
78 pM | B18

Target: T2, IFN-αG (human, UniProt P01569 24-189)
T2 construct: Recombinant, HEK293; also called IFN-α5
Test: ProteOn SPR, cell supernatant;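 further: each binding measurement used just a single antigen concentration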

Kd | Binder
44 pM | B1
103 pM | B2
178 pM | B3
27 pM | B4
48 pM | B5
150 pM | B6
33 pM | B7
30 pM | B8
26 pM | B9
21 pM | B10
35 pM | B11
50 pM | B12
5 pM | B13
35 pM | B14
37 pM | B15
38 pM | B16
81 pM | B17
37 pM | B18

Target: T3, IFN-αC (human, UniProt P01566 24-189)
T3 construct: Recombinant, HEK293; also called IFN-α10
Test: ProteOn SPR, cell supernatant;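 further: each binding measurement used just a single antigen concentration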

Kd | Binder
37 pM | B1
94 pM | B2
191 pM | B3
32 pM | B4
34 pM | B5
172 pM | B6
68 pM | B7
31 pM | B8
19 pM | B9
39 pM | B10
23 pM | B11
43 pM | B12
11 pM | B13
22 pM | B14
113 pM | B15
44 pM | B16
126 pM | B17
37 pM | B18

Target: T4, IFN-αJ1 (human, UniProt P01567 24-189)
T4 construct: Recombinant, HEK293; also called IFN-α7
Test: ProteOn SPR, cell supernatant;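 further: each binding measurement used just a single antigen concentration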

Kd | Binder
150 pM | B1
690 pM | B2
656 pM | B3
58 pM | B4
140 pM | B5
496 pM | B6
174 pM | B7
70 pM | B8
51 pM | B9
225 pM | B10
151 pM | B11
125 pM | B12
41 pM | B13
45 pM | B14
299 pM | B15
192 pM | B16
399 pM | B17
119 pM | B18

Target: T5, IFN-αWA (human, UniProt P05015 24-189)
T5 construct: Recombinant, HEK293; also called IFN-α16
Test: ProteOn SPR, cell supernatant;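 further: each binding measurement used just a single antigen concentration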

Kd | Binder
85 pM | B1
272 pM | B2
493 pM | B3
60 pM | B4
62 pM | B5
248 pM | B6
70 pM | B7
59 pM | B8
44 pM | B9
41 pM | B10
87 pM | B11
64 pM | B12
25 pM | B13
31 pM | B14
124 pM | B15
120 pM | B16
193 pM | B17
63 pM | B18

Target: T6, IFN-α4a (human, UniProt P05014 24-189)
T6 construct: Recombinant, HEK293; also called IFN-αM1
Test: ProteOn SPR, cell supernatant;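 further: each binding measurement used just a single antigen concentration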

Kd | Binder
206 pM | B1
432 pM | B2
1160 pM | B3
128 pM | B4
113 pM | B5
533 pM | B6
193 pM | B7
100 pM | B8
69 pM | B9
155 pM | B10
101 pM | B11
100 pM | B12
58 pM | B13
67 pM | B14
475 pM | B15
193 pM | B16
582 pM | B17
135 pM | B18

Target: T7, IFN-αF (human, UniProt P01568 24-189)
T7 construct: Recombinant, HEK293; also called IFN-α21
T7 chain: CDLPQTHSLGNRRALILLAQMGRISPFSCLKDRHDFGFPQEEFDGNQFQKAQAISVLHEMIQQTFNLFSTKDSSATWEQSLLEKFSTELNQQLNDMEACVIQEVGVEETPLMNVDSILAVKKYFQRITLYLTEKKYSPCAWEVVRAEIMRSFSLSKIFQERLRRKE
Test: ProteOn SPR, cell supernatant

Kd | Binder
33 pM | B1
116 pM | B2
229 pM | B3
33 pM | B4
39 pM | B5
168 pM | B6
101 pM | B7
39 pM | B8
26 pM | B9
39 pM | B10
37 pM | B11
50 pM | B12
9 pM | B13
23 pM | B14
118 pM | B15
51 pM | B16
158 pM | B17
37 pM | B18

Target: T2, IFN-αG
Test: cell-based or functional assay

IC50, ISRE assay | Binder
27 pM | B19

Target: T3, IFN-αC
Test: cell-based or functional assay

IC50, ISRE assay | Binder
98 pM | B19

Target: IFN-αH2 (human, UniProt P01570 24-189)
Test: cell-based or functional assay

IC50, ISRE assay | Binder
33 pM | B19

Target: T7, IFN-αF
Test: cell-based or functional assay

IC50, ISRE assay | Binder
48 pM | B19
